US6462254

Target: angiostatin-FLAG-HA (pMB281.1)
Experiment: ECL sandwich assay on 293 cell lysate, biotinylated anti-FLAG M2 capture

ECL signal above background (fold above background): > 2
Substance: anti-FLAG M2 monoclonal antibody (IBI/Kodak)
